What follows are substances tested against taxol-stabilized microtubules polymerized from bovine brain tubulin (bovine) (UniProt Q6B856) (assay: co-sedimentation; microtubule pelleting assay as with ATP but with 5 mM AMPPNP: 1 uM Kif5A, tubulin 0-8 uM (WT) or 0-20 uM (mutants), 20 uM taxol, room temperature 15 min; fraction Kif5A bound by western blot densitometry).
Chain of human Kif5A, first 560 amino acids, wild type, fused to EGFP and a C-terminal 6xHIS tag (Q12840 1-560): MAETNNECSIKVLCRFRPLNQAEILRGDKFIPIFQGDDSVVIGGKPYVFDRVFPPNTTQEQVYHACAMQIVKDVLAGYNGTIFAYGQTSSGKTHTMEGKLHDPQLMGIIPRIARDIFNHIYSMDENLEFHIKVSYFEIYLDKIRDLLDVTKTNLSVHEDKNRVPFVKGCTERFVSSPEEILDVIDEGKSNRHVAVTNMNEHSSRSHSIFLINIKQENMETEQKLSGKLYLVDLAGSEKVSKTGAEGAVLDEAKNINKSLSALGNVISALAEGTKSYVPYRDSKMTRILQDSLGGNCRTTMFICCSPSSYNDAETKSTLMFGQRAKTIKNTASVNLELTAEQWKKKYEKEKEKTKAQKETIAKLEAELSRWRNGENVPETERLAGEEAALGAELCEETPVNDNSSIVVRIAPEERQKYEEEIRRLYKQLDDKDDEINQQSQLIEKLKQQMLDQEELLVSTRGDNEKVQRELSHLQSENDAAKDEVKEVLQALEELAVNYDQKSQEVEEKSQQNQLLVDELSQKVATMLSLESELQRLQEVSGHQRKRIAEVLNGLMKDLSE
Work on “human Kif5A, first 560 amino acids, wild type, fused to EGFP and a C-terminal 6xHIS tag (from UniProt Q12840 1-560) (domain or fragment)” yielded a percent bound at saturation of 100%.

Each substance was assayed against taxol-stabilized microtubules polymerized from bovine brain tubulin (bovine) (UniProt Q6B856) (assay: not given).
Substance “human Kif5A, first 560 amino acids, E251K, fused to EGFP and a C-terminal 6xHIS tag (from UniProt Q12840 1-560) (domain or fragment)” has a -fold increase of the ATPase rate by MTs (MT-stimulated over basal; malachite green phosphate assay, microtubules from 2 uM tubulin) of 6.2 fold. “human Kif5A, first 560 amino acids, M198T, fused to EGFP and a C-terminal 6xHIS tag (from UniProt Q12840 1-560) (domain or fragment)” showed a -fold increase of the ATPase rate by MTs (MT-stimulated over basal; malachite green phosphate assay, microtubules from 2 uM tubulin) of 42.6 fold. With “human Kif5A, first 560 amino acids, R204Q, fused to EGFP and a C-terminal 6xHIS tag (from UniProt Q12840 1-560) (domain or fragment)” the -fold increase of the ATPase rate by MTs (MT-stimulated over basal; malachite green phosphate assay, microtubules from 2 uM tubulin) was 10.6 fold. Work on “human Kif5A, first 560 amino acids, S202N, fused to EGFP and a C-terminal 6xHIS tag (from UniProt Q12840 1-560) (domain or fragment)” yielded a -fold increase of the ATPase rate by MTs (MT-stimulated over basal; malachite green phosphate assay, microtubules from 2 uM tubulin) of 5.4 fold. “human Kif5A, first 560 amino acids, S203C, fused to EGFP and a C-terminal 6xHIS tag (from UniProt Q12840 1-560) (domain or fragment)” gave a -fold increase of the ATPase rate by MTs (MT-stimulated over basal; malachite green phosphate assay, microtubules from 2 uM tubulin) of 23.5 fold. In the case of “human Kif5A, first 560 amino acids, wild type, fused to EGFP and a C-terminal 6xHIS tag (from UniProt Q12840 1-560) (domain or fragment)”, the -fold increase of the ATPase rate by MTs (MT-stimulated over basal; malachite green phosphate assay, microtubules from 2 uM tubulin) is reported as 33.2 fold.

— publication PMC5498027
